This passage reports self-cleavage results from the RNAGym collection of RNA variant scans (doi:10.7554/elife.80360).

To fix the notation:
B1: Hairpin Ribozyme (parent)
chain: GUCCUCUUUCACGUGCGCGUGAAAGAGAGAAGUGAACCAGAGAAACACACGUUGUGGUAUAUUACCUGGUA

The variants in this series derive from B1. The experiment in a line: self-cleavage, relative activity (ratio to wild type); higher = more cleavage; co-transcriptional.
For GUCCUCUUUCACGUGCGCGUGAAAGAGAGAAGUGAACCAGAGAAUCACACGUUGUGGUAUGUUACCUGGUA, the self-cleavage amounted to 0.184. Next, GUCCUCUUUCACAUGCGCGUGAAAGAAAGAAGUGAACCAGAGAAACACACGUUGUGGUAUAUUACCUGGUA: 0.462. Next, GUCCUCUUUAACGUGCGCGUGAAAGAGAAAAGUGAACCAGAGAAACACACGUUGUGGUAUAUUACCUGGUA: 0.111; GUCCUCUUUCACGUGCGAGUGAAAGAGAGAAGUGAACCAGAGAAACACACGUUGUGGUAUAUUACCUGGCA: 0.952. Under GUCCUCUUUCACGUGCGCGUGAAAGAGAGAAGUGAACCAGAGAAACACAUGUUGUGGUAUAUUACCUGGUA stands 0.396; under GUCCUCUUUCACGUGCGCGUGAAAGAGAGUAGUGAACCAGAGAAACACACGUUGUGGUAUAUUACCGGGUA, 0.176. Take GUCCUCUUUCACGUGCGCGUGAAAGAGAGAAGUGAAGCAGAGAAACACACGUUAUGGUAUAUUACCUGGUA: the self-cleavage turned out to be 0.173. With GUCCUCUUUCACGUGCGCGUGAAAGAGAGAAGUGAACCAGCGAAACACACGUUGUGGUAUAUUGCCUGGUA, the self-cleavage turned out to be 0.173. Take GUCCUCUUUCACGUGCGCGUGAAAUAGAGAAGUGGACCAGAGAAACACACGUUGUGGUAUAUUACCUGGUA: the self-cleavage is 0.656. Next, GUCCUCUUUCACGUGCGCGUGGAAGAGAGAAGUGAACCAGAGAAACACACGUUGUGGCAUAUUACCUGGUA: 0.954.

In the case of GUCCUCUUUCACGUGCGCGUGAAAGAGAGAAUUGAACCAGAGAAACACACGUUGUGGUAUAUUCCCUGGUA, the self-cleavage is 0.258. On to GUCCUCUUUCACGUGCGCGUGAAAGAGAGAAGUGAACCAGAGAACCACACGUUGUGGUAUACUACCUGGUA, for which the self-cleavage was 0.141. Next, GUCCUCUUUCACGUGCGCGUGAAAGAGAGAAGUGAACCAGAGAAACACACGUCGUGGUAUAUUACAUGGUA: 0.249. Under GUCCUCUUUCCCGUGCGCGUGAAAGAGAGAAGUGAACGAGAGAAACACACGUUGUGGUAUAUUACCUGGUA stands 0.0848; under GUCCUCUUGCACGUGCGCGUGAAAGAGAGAAGUGAACCAGAGAAACACACGUUGUGGUAUAAUACCUGGUA, 0.0559; under GUCCUCUUUCACGUGCGCGUGAAAGAGAGAAGUGAACCAGAGAAACUCACGUUUUGGUAUAUUACCUGGUA, 0.145. Consider GUCCUCCUUCACGUGCGCGUGAAAGAGAGACGUGAACCAGAGAAACACACGUUGUGGUAUAUUACCUGGUA, for which the self-cleavage was 0.112. Under GUCCUCUUUCACGUGCGCGUGAAAGAGAUAAGUGAACCAGAGGAACACACGUUGUGGUAUAUUACCUGGUA stands 0.134; under GUCCUCUUUCACGUGCGCGUGAAAGAGAGAAGUGAACCAGAUAAGCACACGUUGUGGUAUAUUACCUGGUA, 0.131. As to GUCCUCUUUCAUGUGCGCGUGAAAGAGAGAAGUGAACCAGAGAAACACACGUUGUGGUAUGUUACCUGGUA, the self-cleavage came out at 0.255. Next, GUCCUCUUUCACUUGCGCGUGAAAGAGAGAAGUGAACCAGAGAAACACACCUUGUGGUAUAUUACCUGGUA: 0.745. Next, GUCCUCUUUCACGUGCGCGUGAAAGAGAGAGGUGAACCAGAGAAACACACGUUGUCGUAUAUUACCUGGUA: 0.164; GUCCUCUUGCACGUGCGCGUGAAAGAGAGAAGUGAACCAGAGAAACACACGUUGUGGUACAUUACCUGGUA: 1.04. Under GUCCUCUUUCACGUGCGCGUGAAAGAGAGAAGUGAACCAGAGAAACAUACGAUGUGGUAUAUUACCUGGUA stands 0.138; under GUCCUCUUUCACGUGCGCGUGAAAAAGAGAAGUGAACCGGAGAAACACACGUUGUGGUAUAUUACCUGGUA, 0.192. Turning to GUCCUCUUUCACGUGCGCGUGAAAGAGAGAAGUGAACCAAAGAAACACAGGUUGUGGUAUAUUACCUGGUA, the self-cleavage was determined as 0.243. Under GUCCUCUUUCACGUGCGCGUGAAAGAAAGAAGUGAACCAGAGAAACACACGUUGUGGUUUAUUACCUGGUA stands 0.185. Under GUCCUCUUUCACGCGCGCGUGAAAGAGAGAAGUGAACCAGAGAAACACACGUUGUGGUAUAUUCCCUGGUA stands 0.257; under UUCCUCUUUCACGUGCGCGUGAAAGAGAGAAGUGAACCAGAGAAACACACGUUGUGGUAUAUAACCUGGUA, 0.215; under GUCCUCUUUCACGUGCGCGUGAAAGAGAUAAAUGAACCAGAGAAACACACGUUGUGGUAUAUUACCUGGUA, 0.169. Regarding GUCCUCUUUCCCGUGCGCGUGAAAGAGAGAAGUGAACCAGGGAAACACACGUUGUGGUAUAUUACCUGGUA, the self-cleavage amounted to 0.701. GUCCUCUUUCACGUGCGCGUAAAAGAGAGAAGUGAACCAGAGAAACACACGUUGUGGUAUAUUAGCUGGUA: the self-cleavage came out at 0.158. Turning to GUCCCCUUUCACGUGCGCGUGAAAGAGAGAAGUGAACCAGAGAAACACACGUUAUGGUAUAUUACCUGGUA, the self-cleavage turned out to be 0.467. Next, GUCCUAUUUGACGUGCGCGUGAAAGAGAGAAGUGAACCAGAGAAACACACGUUGUGGUAUAUUACCUGGUA: 0.377; GUCCUCUUUCACGUGCGCGUGAAAGAGAGAAGUGAGCCAGAGAACCACACGUUGUGGUAUAUUACCUGGUA: 0.189. Under GUCCUCUUUCACGUGGGCGUGAAAGAGAGAACUGAACCAGAGAAACACACGUUGUGGUAUAUUACCUGGUA stands 0.091. For the variant GUCCUCUUUCACGUGCGCGCGAAAGAGAGAAGUGAACCAGAGAAACACACGUUGUGGUAUAUUAACUGGUA, the self-cleavage was 1. As to GUCCUCUUUCACGUGCGCGUGAAAGAGAGAAGUGAACCAGGGCAACACACGUUGUGGUAUAUUACCUGGUA, the self-cleavage was 0.285. With GUCCUCUUUCUCGUGCCCGUGAAAGAGAGAAGUGAACCAGAGAAACACACGUUGUGGUAUAUUACCUGGUA, the self-cleavage turned out to be 0.566. As to GUCCUCUUUCACGUGCGCGUGAAAGAGAGAAGUGACCCAGAGAAACAUACGUUGUGGUAUAUUACCUGGUA, the self-cleavage turned out to be 0.0598. Consider GUCCUCUUUCCCGUGCGCGUGAAAGAGAGAAGUGAACCAGAGAAACUCACGUUGUGGUAUAUUACCUGGUA, for which the self-cleavage came out at 0.251. GUCCUCCUUCACGUGCGCGUGAAAGAGAGAAGUGAACAAGAGAAACACACGUUGUGGUAUAUUACCUGGUA: the self-cleavage amounted to 0.185. With GUCCUCUUUCACGUGCGCGUGAAAGAGAGAAGUGAACCAGAGAAACACACGUUAUGGUAUAUUACGUGGUA, the self-cleavage is 0.113. With GCCCUCUUCCACGUGCGCGUGAAAGAGAGAAGUGAACCAGAGAAACACACGUUGUGGUAUAUUACCUGGUA, the self-cleavage came to 0.139. Take GUCCUCUUUCACGUGCGCCUCAAAGAGAGAAGUGAACCAGAGAAACACACGUUGUGGUAUAUUACCUGGUA: the self-cleavage came out at 0.493. Next, GUCCUCUUUCACCUGCGCGUGAAAGAGCGAAGUGAACCAGAGAAACACACGUUGUGGUAUAUUACCUGGUA: 0.343; GUCCUCUUUCACGUGCGCGUGAAAGAGAGAAGUGAACCAGAGAAGCACACGUUGUGGUAUAUUACCUGGCA: 0.0703. In the case of GUCCUCUAUCACGUGCGCGUGAAAGAUAGAAGUGAACCAGAGAAACACACGUUGUGGUAUAUUACCUGGUA, the self-cleavage was 0.208. Next, GUCCUCUUUCACGUGCGCGUGAAAGAAAGAAGUGAACCAGAGAAACACACGUUGUGGUAUAUUACCUGAUA: 0.155; GUCCUCUUUCACGUGGGCGUGAAAGAGAGAAGUGAACCAGAGAAACACAUGUUGUGGUAUAUUACCUGGUA: 0.306.

Take GUCCUCUUUCACGUGCGCGUGAAAGCGAGAAGUAAACCAGAGAAACACACGUUGUGGUAUAUUACCUGGUA: the self-cleavage was 0.906. Under GUCCUCUUUCACGUGCGCGUGAAAGAGAGAAGUGUACCAGAGAAAAACACGUUGUGGUAUAUUACCUGGUA stands 0.16; under GUCCUCUUUCACGUGCGCGUGAAAGAGAGAAGUGAAACAGAGGAACACACGUUGUGGUAUAUUACCUGGUA, 0.0981; under GUCCUCUUUCACGUGCGCGUGAAAGAGAGAAGUGCACCAGAGAAACACACGUUGUGGCAUAUUACCUGGUA, 0.798. GUCCUCUUGCACGUGCGCGUGAAAGAGAGAAGUGAACCAGAGUAACACACGUUGUGGUAUAUUACCUGGUA: the self-cleavage came out at 0.111.

Regarding GUCCUCUUUCACGUGCGCGUGAAAGAGAGAAGAGAACCAGAGAAACACACGUUGUGGUAUAUUACCUGGAA, the self-cleavage was 0.0761. On to GUCCUCUUUCACGUGCGGGUGAAAGAGAGAAAUGAACCAGAGAAACACACGUUGUGGUAUAUUACCUGGUA, for which the self-cleavage turned out to be 0.154. Under GUCCUCUUUCACGUGCGCGUGAAAGAGAGAAGUAAACCAGAGAAACACACGUUGUGGUAUAUUACCCGGUA stands 0.463; under GUCCUGUUUCACGUGCGCGUGAAAGAGAGAAGUGAACCAGAGAAACACACGUUGUGGUAUAUUCCCUGGUA, 0.123; under GUCCUCUUUCACGUGCGCGUGAAAGAGAGAAGUGAACCAGAGAAAAACACGUUGUGGUAUAUUACCUGGUA, 0.148. Next, GUCCUCUUUCACGUGCGUGUGAAAGAGAGACGUGAACCAGAGAAACACACGUUGUGGUAUAUUACCUGGUA: 0.0854; GUCCUCUUUCACGUGCGCGUGAAAGAGAGAAGUGAACAUGAGAAACACACGUUGUGGUAUAUUACCUGGUA: 0.206; GUCCUCUUUCACGUGCGCGUGAAAGAGAGAAGUGAACCCGAGAAACACACGUUGUGGUAUCUUACCUGGUA: 0.117. Next, GUCCUCUUUCACGUGAGCGUGAAAGAGAGAAGUGAACCAGAGAAACACACGUUGUGGUAUAUCACCUGGUA: 0.0962. Take GUCCUCUUUCACGUGCGCGUGAAAGAGAUAGGUGAACCAGAGAAACACACGUUGUGGUAUAUUACCUGGUA: the self-cleavage is 0.167.

On to GUCCCCUUUCACGUGCGCGUGAAAGAGAGAAGUGAACCAGAGAAACACACGUUGUGGUAUAGUACCUGGUA, for which the self-cleavage stood at 0.159. Under GUCCUCUUUUACGUGCGCGUGAAAGAGAGAAGUGAACCAGAGAAACACACGUUGUGGUAUAUCACCUGGUA stands 0.102; under GUCCUCUUUCACGUUCGCGUGAAAGAGAGAAGUGAACCAGAGAAACAGACGUUGUGGUAUAUUACCUGGUA, 0.213; under GUCAUCUUUCACGUGCGCAUGAAAGAGAGAAGUGAACCAGAGAAACACACGUUGUGGUAUAUUACCUGGUA, 0.174. In the case of GUCCUCUUUCACGUGCGCGUGAAAGAGAGAAGUGAACCAGAGAACCACACGUUGUGCUAUAUUACCUGGUA, the self-cleavage was 0.105.

In the case of GUCCUCUUUCACGAGCGCGUGAAAGAGAGAAGUGAACCAGAAAAACACACGUUGUGGUAUAUUACCUGGUA, the self-cleavage amounted to 0.108. Take GUCCUCUUUCACGUGCGCGUGAAAGAGAGAAGAGAACCAGAGAAACAGACGUUGUGGUAUAUUACCUGGUA: the self-cleavage was determined as 0.123. Next, GUCCUCUUUCACGUGCGCGUGAAAGAGAGAAGUGAACCAGAGAAACACACGUUGAGGUAUAUUAUCUGGUA: 0.21; GUCCUCUUUCACGUGCGCGUGAAAGAGAGAAGUGAACCAGAGAAACACACGUGGUGGUAUAUUAACUGGUA: 0.641; GUCCUCUUUCACGUGCGCGUGAAAGAGACAAGUGAACCAGAGAAUCACACGUUGUGGUAUAUUACCUGGUA: 0.122. Under GUCCUCUUUCACGUGCGCGCGAAAGAGAGAAGUGAACCAGAGAAACACACGUUGUGGUAUAUUACCUGCUA stands 0.239.
